Assay results as given in US8975044B2, “Polynucleotides encoding for frizzled-binding agents and uses thereof” (OncoMed Pharmaceuticals, Inc., priority 2008, dated 2015).

B1: 18R5: human anti-FZD antibody; VH SEQ ID NO:10 (as 18R8), VL SEQ ID NO:14; binds FZD1, 2, 5, 7, 8 (antibody, V domains shown)
VH: EVQLVESGGGLVQPGGSLRLSCAASGFTFSHYTLSWVRQAPGKGLEWVSVISGDGSYTYYADSVKGRFTISSDNSKNTLYLQMNSLRAEDTAVYYCARNFIKYVFANWGQGTLVTVSS
VL: DIELTQPPSVSVAPGQTARISCSGDNIGSFYVHWYQQKPGQAPVLVIYDKSNRPSGIPERFSGSNSGNTATLTISGTQAEDEADYYCQSYANTLSLVFGGGTKLTVLG
modifications: 18R5/18R8 heavy chain variable region (VH); 18R5 light chain variable region (VL)
B2: 18R8: human anti-FZD antibody from phage display; VH SEQ ID NO:10, VL SEQ ID NO:12; binds FZD1, 2, 5, 7, 8 (antibody, V domains shown)
VH: B1 VH
VL: DIELTQPPSVSVAPGQTARISCSGDKLGKKYASWYQQKPGQAPVLVIYEKDNRPSGIPERFSGSNSGNTATLTISGTQAEDEADYYCSSFAGNSLEVFGGGTKLTVLG
modifications: 18R5/18R8 heavy chain variable region (VH); 18R8 light chain variable region (VL)
B3: 44R24: anti-FZD5/8 IgG antibody, VH SEQ ID NO:85, VL SEQ ID NO:86; ATCC deposit no. PTA-10311 (antibody, V domains shown)
VH: EVQLVESGGGLVQPGGSLRLSCAASGFTFSSYYITWVRQAPGKGLEWVSTISYSSSNTYYADSVKGRFTISRDNSKNTLYLQMNSLRAEDTAVYYCARSIVFDYWGQGTLVTVSS
VL: DIELTQPPSVSVAPGQTARISCSGDALGNRYVYWYQQKPGQAPVLVIPSGIPERFSGSNSGNTATLTISGTQAEDEADYYCGSWDTRPYPKYVFGGGTKLTVLG
modifications: 44R24 VH; 44R24 VL
notes: ATCC deposit no; PTA-10311

Assays:
FZD1 = test: Biacore affinity to recombinant Fzd Fc protein; assay type: binding, human; settings: IgG antibody; Fzd Fc immobilized on CM5 Biacore chip
Procedure: (§1) The KDs of 18R8 and 18R5 antibodies were determined using the Biacore 2000 system from Biacore Lifescience (GE Healthcare). Specifically, purified anti-Fzd7 antibodies were serially diluted in 2-fold increments from 100 to 0.78 nM in HBS-P (0.01 M HEPES pH 7.4, 0.15 M NaCl, 0.005% v/v Surfactant P20). Each dilution was tested against recombinant Fzd Fc proteins immobilized onto a CM5 Biacore chip. The association and dissociation rates were measured and KD values determined using the Biaevaluation software program (Table 5, below).

FZD2 = test: Biacore affinity to recombinant Fzd Fc protein; assay type: binding, human; settings: IgG antibody; Fzd Fc immobilized on CM5 Biacore chip
Procedure: as §1

FZD5 = test: Biacore affinity to recombinant Fzd Fc protein; assay type: binding, human; settings: IgG antibody; Fzd Fc immobilized on CM5 Biacore chip
Procedure: as §1

Axin2 = Axin2 mRNA level in A549 cells by qPCR; assay type: cell-based, human; settings: 5-0.008 μg/ml, 24 hours, relative to LZ1 control
Procedure: A549 cells are human lung carcinoma cells in which the Axin2 gene is highly expressed, translating endogenous activity of Wnt signaling. Axin2 is a well know Wnt target gene that responds to activation of the pathway by up-regulating its transcription and eventually down-regulating Wnt signaling through a feed-back loop mechanism. This system was used to test the impact of the anti-Fzd Abs on Axin2 mRNA levels by qPCR.
12-well plates were seeded with 30,000 A549 cells per well and grown for 3 days in DMEM+10% FBS. Antibodies were added at varying concentrations (5 1, 0.2, 0.04, 0.008 μg/ml) for 24 hours and total RNA was extracted from the cells. LZ1, a nonbinding antibody, was used as negative control at only the highest concentration.
30,000 A549 cells were seeded into 12-well plates and grown for 3 days in DMEM+10% FBS. Anti-FZD antibody 18R5 or 44R24 were added at varying concentrations (5, 1, 0.2, 0.04, 0.008 ug/ml), and LZ1, a nonbinding antibody, was used as a negative control at only the highest concentration. RNA was made 24 hours post treatment and then treated with Dnase.
Axin2 is known to be a robust target gene in Wnt signaling and its expression level was examined by doing a Taqman relative expression (ΔΔCT) assay using an Applied Biosystems 7900 HT machine. 50 ng of RNA was used per point in triplicate and a GUSB probe was used for endogenous control. […]

[1] = tested on: MMTV-WNT1 tumor derived cells; test: MMTV-WNT1 tumor growth; assay type: in vivo, NOD/SCID mice; settings: 10 mg/kg intra-peritoneal twice weekly; p=0.002
Procedure: Female NOD/SCID mice were injected at age 5-7 weeks with 50,000 mouse mammary tumor virus (MMTV)-WNT1 tumor derived cells in the upper right mammary fat pad. […] Tumors from these mice were dissociated and these dissociated tumor cells used for tumor propagation purposes. Mice with tumor cells implanted in the mammary fat pad were monitored twice a week. Once tumors were palpable, tumors were measured twice weekly and tumor volume was determined using the formula ½(a×b^2); where a=length, and b=breadth. Data are expressed as mean and mean±S.E.M. Group means were compared using Student's two-tailed, unpaired t test. […] On day 19, mice with average tumor volume of 44 mm^3 were randomized into 2 groups of 10 animals each. Animals were injected with either control antibody, or 18R5 IgG antibody (10 mg/kg). Administration of the antibodies was performed via injection into the intra-peritoneal cavity, twice weekly.

Wnt target genes = test: qPCR of Wnt target genes in liver of OMP-PN13-bearing mice; assay type: in vivo, NOD/SCID mice
Procedure: Frozen OMP-PN13 tumor cells that have been passaged twice in mice were obtained from Oncomed's tumor bank. They were thawed and injected subcutaneously into the left flank of NOD/SCID mice immediately following thawing. ˜ 25,000 viable cells were injected per animal. The mice were monitored weekly for tumor growth. After their onset, the size of the tumors was measured once weekly by caliper. 200-300 mm^3 tumor-bearing mice were dispatched in treatment groups that each contained 5 animals. […] Ab treatment was initiated the day after randomization. LZ1 was used as the negative control Ab. 3 doses of 10 mg/kg of Ab were administered via intra-peritoneal injection over a 12-day period. Mice were euthanized 24 hours after the last injection. Tumor, duodenum and liver were harvested.
Total RNAs were also extracted from tumor, duodenum and liver for Wnt target gene expression analyses using qPCR.
Tissues were immediately transferred into RNAlater (QIAGEN) at the time of harvest. RNA was extracted using the QIAGEN RNeasy for Fibrous Tissue mini kit according to the manufacturer instructions. 50 ng total RNA were submitted to gene expression analyses using ABI one-step RT-PCR protocol and reagents. GusB gene expression was used as endogenous control. Triplicates were setup for each sample. All 5 tumors of each treatment group were analyzed. ABI 7900 TaqMan machine was used to run the experiments. ABI SDS 2.2.1 software was used to analyze the data and calculate DeltaCt values that were converted into relative quantities. The triplicate values of all 5 tumors were averaged for each treatment group. Fold inhibition factors were then calculated relative to control antibody (LZ1).

[2] = fold relative to control antibody LZ1, 3 doses of 10 mg/kg over 12 days

FZD5, sequence (Q13467 27-150 limits assumed): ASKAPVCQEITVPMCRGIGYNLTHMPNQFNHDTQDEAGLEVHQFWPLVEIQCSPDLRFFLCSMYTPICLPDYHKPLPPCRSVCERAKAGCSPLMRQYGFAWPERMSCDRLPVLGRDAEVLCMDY

Row | Molecule | Kd (FZD1) [nM] | Kd (FZD2) [nM] | Kd (FZD5) [nM] | inhibition of basal level of axin2 gene expression (Axin2) | tumor growth compared to control antibody [1] | Liver GluI (Wnt target genes; [2]) [x] | Liver Lect2 (Wnt target genes; [2]) [x] | Liver Lgr5 (Wnt target genes; [2]) [x] | inhibition of Wnt target gene in liver (Wnt target genes; relative to LZ1) [×] | Liver Axin2 (Wnt target genes; [2]) [x] | Liver Rhbg (Wnt target genes; [2]) [x]
1 | B1 | 4.6 | 3.3 | 1.9 | inhibit Axin2 basal levels | completely abolished tumor growth | −19 | −8 | −26 | 8 | – | –
2 | B2 | 15.6 | 6.2 | 4.2 | – | virtually eliminated | – | – | – | – | – | –
3 | B3 | – | – | – | inhibit Axin2 basal levels | – | – | – | – | – | −2.4 | −1.9
